Laboratory results from the RNAGym collection of RNA variant scans (doi:10.1073/pnas.2313332121).
Fewer inactive variants are shown than the library holds.

B1: TPR 5TU (parent)
chain: GGAUCUUCUCGAUCUAACAAAAAAGACAAAUCUGCCACAAAGCUUGAGAGCAUCUUCGGAUGCAGAGGCGGCAGCCUUCGGUGGCGCGAUAGCGCCAACGUUCUCAACUAUGACACGCAAAACGCGUGCUCCGUUGAAUGGAGUUUAUCAUG

Variants of: B1
Test: polymerase ribozyme fitness, log enrichment relative to wild type (log ratio); higher = more active; in vitro selection for triplet polymerase activity
Procedure, shortened: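 Fitness is a logarithmic measure of how a genotype enriched relative to the wild type, with replicate averages weighted by inverse variance. The logarithm uses base 2, and enrichment came from Illumina sequencing of input and output libraries. Those libraries were PCR-built, transcribed mutants of each subunit of a heterodimeric triplet polymerase ribozyme, passed through one triplicate in vitro selection round that included frozen incubation at −7 °C, gel excision of extended constructs and streptavidin-bead capture. Genotypes were kept only if they had ≥10 input reads and ≥1 read per output.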

Variant	polymerase ribozyme fitness (log ratio)
GGAACUUAUCGAUCUAACAUAAAAGACACAUCUGCCACAGAGCUUGAGAGCAUCUUCGGAUGCAGAGGCCGCAGCCUUCGGUGGCGCGAUAGCGCCAACGAUCUCAACUAUGACACGCAUAACGCGUGCUCCGUUGAAUGGAGUUUAUCAUG [U4A C8A A20U A29C A40G G70C U101A A120U]	≤ -4.2
GGAACUUCUCGAUCUAACAAAAAAGACAAAUCUGCCACAAAGCUUGAGGCCAUCUUCGGAUGCAGCGGCGGCAGCGUUCGGUGGCGCGAUAGUGCCAACGUUCUCAACUAUGACACGCAAAACGCGUGCUCCGUUGAAUGGAGUUUAUCAUG [U4A A49G G50C A66C C76G C93U]	≤ -4.2
GGAACUUCUCGAUCUAACAAAUAAGACAAAUCUGCCACAAAGCUUGAGAGCAUCUUCGGAUGUAGAAGCGGCAGACUUCGGUGGCGCGAUAGCACUAACGUUCUCAACUAUGACACGCAAAACGCGUGCUCCGUUGAAUGGAGUUUAUCAUG [U4A A22U C63U G67A C75A G94A C96U]	≤ -4.2
GGAACUUCUCGAUCUAACAACAAAGACAAAUCUGCCACAAAGCUUGAGAGCAUCUUCGGAUGCAGAGGCGGCAGCCUUCAGUGGCGCGAUAGCGCCAACGUUCUCAACUAUGACACGCAAAACGCGUGCUCCGUUGAAUGGAGUUUAUCAUG [U4A A21C G80A]	-0.338
GGAACUUUUCGAUCUAACAAAAACGACAAAUCUGCCACAAAGCUUGAGAGCAUCUUCGGAUGCAGAGGCGGCAGCCUUCGGUGGCGCGAUAGCGCUAACGUUCUCAACUAUGACACGCAAAACGCGUGCUCCGUUGAAUGGAGUUUAUCAUG [U4A C8U A24C C96U]	≤ -4.2
GGAACUUCUCGAUCUAACAAAAAAGACAAAUCUGCCACAACGCUUGAGAGCAUCUUCGGAUGCAGAGGCGGCAGCCUUCGGUGGCGCGAUAGCGCCAACGUUCUCAACUAUGACACGCAAAACGCCUGCUCCGUUGAAUGGAGUUUAUCAUG [U4A A41C G126C]	-1.9
GGAACUUCUCGAUCUAAUAAAAAAGACAAAUCUGCCACAAAGCUUGAGAGCAUCUUCGGAUGCAGAGGCGGCAGCCUUGGGUGGCGCGAUUGCGCCAACGUUCUCAACUAUGACACGCAAAACGCGUGCUCCGUUGAAUGGCGUUUACCAUG [U4A C18U C79G A91U A142C U148C]	≤ -4.2
GGAACUUCUCGAUCUAACAAAAAAGACUAAUCUGCCACAAAGCUUGAGAGCAUCUUCGGAUGCAGAGGCGGCAGCCUUCGGUGGCGCGAUAGUGCCUACGUUCUGAACUAUGACACGCAAAACGCAUGCUCCGUUUAAUGGAGUUUAUCAUG [U4A A28U C93U A97U C105G G126A G136U]	≤ -4.2
GGAACUUCUCGAUCUAACAUAAAAGACAAAUCUGCCACAAAGCUUGAGACCAUCAUCGGAUGCAGAGGCGGCGGCCUUCGGUGACGCCAUAGCGCCAACGUUCUCAACUAUGACACGCAAAACGCGUGCUCUGUAGAAUGGAGUUUAUCAUG [U4A A20U G50C U55A A73G G84A G88C C132U U135A]	≤ -4.2
GGAACUUCUCGAUCUAACAAAAUAGACAAAUCUGUCACAAAGCUUAAGAGCAUCUUCGGAUGCAGAGGCGGCAGCCUUCGGUGUCGCGAUAGCGCCAACGUUUUCAACUAUGACACGCAAAACGCGUGCUCCGUUGAAAGGAGUUUAUCAUG [U4A A23U C35U G46A G84U C103U U139A]	≤ -4.2
GGAAUUUCUCGAUCUAACAAAAAAGACAAAUAUGCCACAAAGCUUGAGAGCAUUUUCAGAUGCAGAGGCGGCGGCCUUCGGUGACGCGAUGGCGCCAACGUUCUCAACUAUGACACGCAAUACGUGUGCUCCGUUGAAUGGAGUCCAUCAUG [U4A C5U C32A C54U G58A A73G G84A A91G A121U C125U U145C U146C]	≤ -4.2
GGAACUUCUCGAUCUAACAAUAAAGACAAAUCUGCCAUAAAGCUUGAGAGCAUCUUCGGAUGCAGAGGCGGCAGCCUUCGGUGGAGGGAUAGCGCCAACGUUAUCAACUAUGACACGCAAAACGCGUGCUCCGUUGAAUGGAGUUUAUCAUG [U4A A21U C38U C85A C87G C103A]	≤ -4.2
GGAACUUUUCGAUCUAACAAAAAAGACAAAUCUGCCACAAAGCUUGAGAGCAUCUUCGGAUGCAGAGGCGGCAGCCUUCGGUGGCGCGAUAGCGCCAACGUUCUCAAGUAUGACACGCAAAACGCGUGCUCCGUUGAAUCGAGUUUAUCAUG [U4A C8U C108G G140C]	≤ -4.2
GGAACUUCUCGAUCUAACAAAAAAGACAUAUCUGCCAUAAAGCAUGAGAGCAUCAUUGGAUGCAGAGGCGGCAGCCUUCGGUGGCGGGAUAGCGGCAACGUUCUCAACUAUGACACGCAAAACGCGUGCUCCGUUGAAUGGAGUUUAUCAUG [U4A A29U C38U U44A U55A C57U C87G C95G]	≤ -4.2
GGAAGUUCUCGAUCUAACAAAAAAGACAAAUCUGCCACAAAGCUUGAGAGCAUCUUCAGAUGCAGAGGCGGCUGUCUUCGGUGGAGCGAUAGCGCCAACAUUCUGAACUAUGACACGCAAAACGCGUGCUCCGUUGAAUGGAGUAUAUCAUG [U4A C5G G58A A73U C75U C85A G100A C105G U145A]	≤ -4.2
GGAACUUCUCGAUCUAACAAAAAAGACAAAUCUGCCAUAUAUCUUGAGAGCAUCUUCGGAUGCAGAGGCGGCGGCCUUCGGCGGCGCGAUAGCUCCAACGUUCUCAGCUAUGACACGCAAAACGCGUGCUCCGUUGAAUGGAGUUUAUCAUG [U4A C38U A40U G42U A73G U82C G94U A107G]	≤ -4.2
GGAAGUUGGCGAUCUAACAAAAAAGACAAAUCUGCCACAAAGCUUGAGAGCAAAUUCGGAUGCAGAGGCGGAAGCCUUAGGUGGUGCGAUAGCGCCAACGUUCUCAACUAUGACCCGCAAAACGCGUGCUCCGUUGAAACGAGUUUAUCAUG [U4A C5G C8G U9G U53A C54A C72A C79A C85U A115C U139A G140C]	≤ -4.2
GGAACUUCUCGAUCUAACAACAAAGACAAAUCUGCCACAAAGCUUGAGAGCAUCUUCGGAUGCAGAGGCGGCAGCCUUCGGUGGCGCGAUAGCGCCAACGUUCUCAACUAUGACACGCAAAACGCGUGCUCCGUUGAAUGGAGUUUAUCAUG [U4A A21C]	0.483
GGAACUUCUCGAUCUAACAAAAAAGACAAAUCUGGCACAAAGCUUAAGAGCAUCUUCGGAUGCAGAGGCGGCAGGCUUCGGUGGCGCGAUAGCCCCAACGUUCUGAACUAUGACACGCAAAACGCGUGCUCCGUUGAAUGGAGUUUAUCAUG [U4A C35G G46A C75G G94C C105G]	≤ -4.2
